Experimental data as given in patent publication US20240182536A1 (MURAL ONCOLOGY, published 2024).
Residue numbers refer to the chain shown, from its start. Names may count otherwise. Like-named read-outs stand apart in the source and are kept apart here.

T1: human IL-18 binding protein (human, UniProt O95998 31-194)
T1 sequence (looked up): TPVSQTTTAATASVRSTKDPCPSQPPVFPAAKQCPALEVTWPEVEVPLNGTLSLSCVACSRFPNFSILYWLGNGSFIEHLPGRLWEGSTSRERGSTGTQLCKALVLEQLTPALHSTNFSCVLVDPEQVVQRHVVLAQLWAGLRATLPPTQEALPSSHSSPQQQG

T2: IL-18 receptors on HEK-Blue IL-18 reporter cells (UniProt Q13478 19-541; O95256 20-599, limits assumed)
T2 sequence (looked up) 1: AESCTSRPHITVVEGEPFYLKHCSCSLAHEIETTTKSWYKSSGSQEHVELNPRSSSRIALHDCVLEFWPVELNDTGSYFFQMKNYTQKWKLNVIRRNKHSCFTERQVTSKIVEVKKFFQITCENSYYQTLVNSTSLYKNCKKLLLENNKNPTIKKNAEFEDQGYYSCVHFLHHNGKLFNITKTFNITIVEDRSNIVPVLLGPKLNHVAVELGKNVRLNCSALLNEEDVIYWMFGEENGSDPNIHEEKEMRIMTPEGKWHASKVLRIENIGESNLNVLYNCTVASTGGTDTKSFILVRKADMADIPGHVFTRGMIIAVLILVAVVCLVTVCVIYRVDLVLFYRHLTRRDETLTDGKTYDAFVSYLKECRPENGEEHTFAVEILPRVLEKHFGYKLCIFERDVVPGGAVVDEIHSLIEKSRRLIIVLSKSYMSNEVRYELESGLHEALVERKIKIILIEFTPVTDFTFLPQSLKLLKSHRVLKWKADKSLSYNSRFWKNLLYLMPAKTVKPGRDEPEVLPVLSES
T2 sequence (looked up) 2: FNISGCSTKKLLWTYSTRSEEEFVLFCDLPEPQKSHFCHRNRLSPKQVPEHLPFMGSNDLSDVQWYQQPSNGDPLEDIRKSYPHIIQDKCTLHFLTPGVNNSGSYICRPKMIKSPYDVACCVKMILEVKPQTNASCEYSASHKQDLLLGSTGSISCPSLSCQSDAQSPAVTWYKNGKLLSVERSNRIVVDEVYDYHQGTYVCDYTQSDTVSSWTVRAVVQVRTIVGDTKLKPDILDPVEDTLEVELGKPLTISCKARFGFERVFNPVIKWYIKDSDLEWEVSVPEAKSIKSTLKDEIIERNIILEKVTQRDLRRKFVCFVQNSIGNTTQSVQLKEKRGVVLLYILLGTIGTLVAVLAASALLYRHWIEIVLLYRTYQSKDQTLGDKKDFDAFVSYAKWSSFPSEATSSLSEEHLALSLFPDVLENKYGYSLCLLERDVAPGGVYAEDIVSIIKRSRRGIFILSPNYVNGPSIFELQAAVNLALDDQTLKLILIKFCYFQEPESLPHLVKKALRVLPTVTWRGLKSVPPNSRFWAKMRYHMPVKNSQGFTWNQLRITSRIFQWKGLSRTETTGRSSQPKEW

T3: IL-18 receptors on HEK-Blue IL-18 reporter cells (UniProt Q13478 19-541; O95256 20-599, limits assumed)
T3 sequence (looked up) 1: T2 sequence (looked up) 1
T3 sequence (looked up) 2: T2 sequence (looked up) 2

T4: interleukin 18 binding protein (IL-18BP) (UniProt O95998 31-194)
T4 sequence (looked up): T1 sequence (looked up)

B1: yeast display IL-18 variant K53S, S55K (ligand)
chain: YFGKLESKLSVIRNLNDQVLFIDQGNRPLFEDMTDSDMRDNAPRTIFIISMYSDKQPRGMAVTISVKSEKISTLSSENKIISFKEMNPPDNIKDTKSDIIFFQRSVPGHDNKMQFESSSYEGYFLASEKERDLFKLILKKEDELGDRSIMFTVQNED
B2: yeast display IL-18 variant K53T, S55A (ligand)
chain: B1 chain with S53T, K55A
B3: yeast display IL-18 variant K53S, S55G (ligand)
chain: B1 chain with K55G
B4: yeast display IL-18 variant K53T, S55P (ligand)
chain: B1 chain with S53T, K55P
B5: yeast display IL-18 variant K53S, S55Y (ligand)
chain: B1 chain with K55Y
B6: yeast display IL-18 variant K53T, S55M, R58K (ligand)
chain: B1 chain with S53T, K55M, R58K
B7: yeast display IL-18 variant S36E, D37E, D40K, N41T, K53T, S55Q, R104H (ligand)
chain: B1 chain with S36E, D37E, D40K, N41T, S53T, K55Q, R104H
B8: IL-18 variant K53G, S55I, R104K, P107Y (ligand)
chain: B1 chain with S53G, K55I, R104K, P107Y
B9: IL-18 variant K8R, L9G, S10C, K53G, S55A, R104G (ligand)
chain: B1 chain with K8R, L9G, S10C, S53G, K55A, R104G
B10: IL-18 variant S36Q, D40T, K53P, S55L (ligand)
chain: B1 chain with S36Q, D40T, S53P, K55L
B11: IL-18 variant K53H, S55Y (ligand)
chain: B1 chain with S53H, K55Y
B12: IL-18 variant T34E, S36P, D40A, N41G, K53T, S55R (ligand)
chain: B1 chain with T34E, S36P, D40A, N41G, S53T, K55R
B13: IL-18 variant S36E, D37E, D40V, N41S, K53Y, S55V, H109Y (ligand)
chain: B1 chain with S36E, D37E, D40V, N41S, S53Y, K55V, H109Y
B14: IL-18 variant T34S, S36Y, D37N, D40E, N41Q, K53Y, S55I (ligand)
chain: B1 chain with T34S, S36Y, D37N, D40E, N41Q, S53Y, K55I
B15: IL-18 variant S36F, N41E, K53W (ligand)
chain: B1 chain with S36F, N41E, S53W, K55S
B16: IL-18 variant T34N, S36N, D40E, N41G, K53S, S55Q, R104N, H109Y (ligand)
chain: B1 chain with T34N, S36N, D40E, N41G, K55Q, R104N, H109Y

Tests used:
Assay in all cases: cell-based or functional assay
[1] = target: T1, human IL-18 binding protein
[2] = target: T2, IL-18 receptors on HEK-Blue IL-18 …
[3] = target: T3, IL-18 receptors on HEK-Blue IL-18 …; remark: listed apart in the source
[4] = target: T4, interleukin 18 binding protein (IL-18BP)

Binder	HEK-Blue activity, +100 nM BP, DF-10000 [1]	HEK-Blue activity, +100 nM BP, DF-100,000 [1]	HEK-Blue activity, +100 nM BP, DF-1,000,000 [1]	Ratio (-BP/+BP), DF-10000 [1]	Ratio (-BP/+BP), DF-100,000 [1]	Ratio (-BP/+BP), DF-1,000,000 [1]	HEK-Blue activity, No BP, DF-10000 [2]	HEK-Blue activity, No BP, DF-100,000 [2]	HEK-Blue activity, No BP, DF-1,000,000 [2]	HEK-Blue activity, No BP, DF-10000 [3]	HEK-Blue activity, No BP, DF-100,000 [3]	HEK-Blue activity, No BP, DF-1,000,000 [3]	HEK-Blue activity, +100 nM BP, DF-10000 [4]	HEK-Blue activity, +100 nM BP, DF-100,000 [4]	HEK-Blue activity, +100 nM BP, DF-1,000,000 [4]	Ratio (-BP/+BP), DF-10000 [4]	Ratio (-BP/+BP), DF-100,000 [4]	Ratio (-BP/+BP), DF-1,000,000 [4]
B1	2.03	1.41	0.53	0.98	0.96	0.95	2	1.35	0.5	–	–	–	–	–	–	–	–	–
B2	1.85	0.95	0.32	0.97	1	0.89	1.8	0.96	0.29	–	–	–	–	–	–	–	–	–
B3	1.83	0.97	0.27	0.93	0.95	1.1	1.71	0.91	0.3	–	–	–	–	–	–	–	–	–
B4	1.53	0.65	0.21	0.93	0.91	0.79	1.42	0.59	0.16	–	–	–	–	–	–	–	–	–
B5	1.52	0.55	0.21	0.93	0.97	0.9	1.41	0.54	0.19	–	–	–	–	–	–	–	–	–
B6	0.72	0.21	0.17	1.08	0.92	0.72	0.78	0.2	0.12	–	–	–	–	–	–	–	–	–
B7	0.81	0.21	0.14	1	1.01	1.22	0.81	0.22	0.17	–	–	–	–	–	–	–	–	–
B8	–	–	–	–	–	–	–	–	–	0.1	0.09	0.09	0.11	0.09	0.09	0.99	1	0.95
B9	–	–	–	–	–	–	–	–	–	0.1	0.13	0.1	0.12	0.14	0.1	0.88	0.92	1.03
B10	–	–	–	–	–	–	–	–	–	0.09	0.13	0.08	0.09	0.09	0.09	1.09	1.44	0.9
B11	–	–	–	–	–	–	–	–	–	0.09	0.09	0.09	0.1	0.1	0.11	0.91	0.99	0.8
B12	–	–	–	–	–	–	–	–	–	0.09	0.1	0.09	0.1	0.09	0.09	0.98	1.01	0.96
B13	–	–	–	–	–	–	–	–	–	0.09	0.09	0.09	0.09	0.1	0.1	1.03	0.92	0.89
B14	–	–	–	–	–	–	–	–	–	0.09	0.09	0.09	0.09	0.09	0.12	0.98	0.96	0.75
B15	–	–	–	–	–	–	–	–	–	0.09	0.1	0.09	0.09	0.1	0.09	1	1.01	0.91
B16	–	–	–	–	–	–	–	–	–	0.09	0.09	0.08	0.09	0.09	0.09	0.95	1.01	0.95
